What was measured:
CICmin18 WT [1] = target: T1, CICmin18 WT (human, UniProt Q96RK0-2;Q96RK0-2); test: X-ray crystallography 2.95 A
CICmin18 WT [2] = target: T1, CICmin18 WT; test: EMSA
CICmin31 WT (IVT) = CICmin31 WT (IVT) (human, UniProt Q96RK0-2 188-294+1457-1527, internal_change); test: EMSA
CICmin18 R1515H = CICmin18 R1515H (human, UniProt Q96RK0-2 188-280+=F+1457-1527, R1515H;internal_change); test: MST
CICmin18 R1512H = CICmin18 R1512H (human, UniProt Q96RK0-2 188-280+=F+1457-1527, R1512H;internal_change); test: MST
CICmin18 M1519D = CICmin18 M1519D (human, UniProt Q96RK0-2 188-280+=F+1457-1527, M1519D;internal_change); test: MST
CICmin18 WT [3] = target: T1, CICmin18 WT; test: MST
CICmin31 M1519D = CICmin31 M1519D (human, UniProt Q96RK0-2 188-294+1457-1527, M1519D;internal_change); test: MST
CICmin31 WT = CICmin31 WT (human, UniProt Q96RK0-2 188-294+1457-1527, internal_change); test: MST
CICmin31 R201W = CICmin31 R201W (human, UniProt Q96RK0-2;Q96RK0-2, R201W); test: MST
CICmin31 R1515H = CICmin31 R1515H (human, UniProt Q96RK0-2 188-294+1457-1527, R1515H;internal_change); test: MST
CICmin31 R215W = CICmin31 R215W (human, UniProt Q96RK0-2 188-294+1457-1527, R215W;internal_change); test: MST
CICmin31 R201W (IVT) = CICmin31 R201W (IVT) (human, UniProt Q96RK0-2 188-294+1457-1527, R201W;internal_change); test: EMSA

B1: ETV5 18-mer (crystal) (dsDNA)
DNA 1: GGTTATGAATGAAAAACC
DNA 2: GGTTTTTCATTCATAACC
- binding result (CICmin18 WT [1]): binds

B2: random-site 30-mer (EMSA) (dsDNA)
DNA 1: GGCGTTTTTTAGTCGCTGCAAACGTCCTCC
DNA 2: GGAGGACGTTTGCAGCGACTAAAAAACGCC
- binding result (CICmin18 WT [2]): no binding
- binding result (CICmin31 WT (IVT)): no binding

B3: ETV5 30-mer (MST) (dsDNA)
DNA 1: GGCGTTTTTTATGAATGAAAAACGTCCTCC
DNA 2: GGAGGACGTTTTTCATTCATAAAAAACGCC
- apparent K (half saturation) (CICmin18 R1515H): 16.7 nM
- apparent K (half saturation) (CICmin18 R1512H): 14.6 nM
- apparent K (half saturation) (CICmin18 M1519D): 50.3 nM
- apparent K (half saturation) (CICmin18 WT [3]): 15.5 nM
- apparent K (half saturation) (CICmin31 M1519D): 32.2 nM
- apparent K (half saturation) (CICmin31 WT): 226 nM
- apparent K (half saturation) (CICmin31 R201W): 171 nM
- apparent K (half saturation) (CICmin31 R1515H): 1430 nM
- apparent K (half saturation) (CICmin31 R215W): 151 nM

B4: ETV5 30-mer (EMSA) (dsDNA)
DNA 1: GGCGTTTTTTATGAATGAAAAACGTCCTCC
DNA 2: GGAGGACGTTTTTCATTCATAAAAAACGCC
- binding result (CICmin31 R201W (IVT)): binds

Reference: PMC13152641
